According to publication PMC5336394 (Structure (London, England : 1993), 2017):

Assays:
Experiment in all cases: NMR titration
[1] = target: CypA^V6T (UniProt P62937 1-165, V6T)
[2] = target: cyclophilin A (UniProt P62937 1-165)
[3] = target: CypA^V6A (UniProt P62937 1-165, V6A)
[4] = target: CypA^V6I (UniProt P62937 1-165, V6I)
[5] = target: CypA^V29T (UniProt P62937 1-165, V29T)
[6] = target: CypA^V29L (UniProt P62937 1-165, V29L)
[7] = target: CypA^V6TV29L (UniProt P62937 1-165, V6T | V29L)
[8] = target: CypA^V6L (UniProt P62937 1-165, V6L)
Chain of CypA^V6L (P62937 whole entry V6L): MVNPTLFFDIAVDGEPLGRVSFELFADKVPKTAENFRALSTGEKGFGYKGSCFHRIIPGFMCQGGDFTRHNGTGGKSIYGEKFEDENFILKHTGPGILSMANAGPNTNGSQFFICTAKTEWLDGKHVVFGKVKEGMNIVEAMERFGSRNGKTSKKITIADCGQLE

[9] = target: CypA^V29A (UniProt P62937 1-165, V29A)
Chain of CypA^V29A (P62937 whole entry V29A): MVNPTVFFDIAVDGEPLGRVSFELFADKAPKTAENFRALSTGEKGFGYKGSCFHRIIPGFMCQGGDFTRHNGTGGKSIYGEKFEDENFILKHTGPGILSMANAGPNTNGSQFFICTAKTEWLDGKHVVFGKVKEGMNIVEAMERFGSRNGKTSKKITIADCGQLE

[10] = target: CypA^V6S (UniProt P62937 1-165, V6S)
Chain of CypA^V6S (P62937 whole entry V6S): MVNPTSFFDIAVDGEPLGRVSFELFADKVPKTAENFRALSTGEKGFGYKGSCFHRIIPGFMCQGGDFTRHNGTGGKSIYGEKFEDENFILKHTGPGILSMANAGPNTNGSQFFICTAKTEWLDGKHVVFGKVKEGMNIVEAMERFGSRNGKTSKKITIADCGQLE

Chain of CypA^V29T (P62937 whole entry V29T): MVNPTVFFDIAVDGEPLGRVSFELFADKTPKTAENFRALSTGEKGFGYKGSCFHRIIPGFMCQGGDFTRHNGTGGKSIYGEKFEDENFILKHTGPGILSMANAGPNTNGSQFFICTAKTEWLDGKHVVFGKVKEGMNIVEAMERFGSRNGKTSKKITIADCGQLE
Chain of CypA^V6A (P62937 whole entry V6A): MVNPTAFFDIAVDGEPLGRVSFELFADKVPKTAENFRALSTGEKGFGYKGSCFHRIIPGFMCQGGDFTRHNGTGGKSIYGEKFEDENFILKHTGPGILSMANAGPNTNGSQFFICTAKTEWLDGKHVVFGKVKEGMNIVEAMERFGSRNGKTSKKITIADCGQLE
Chain of CypA^V6TV29L (P62937 whole entry V6T/V29L): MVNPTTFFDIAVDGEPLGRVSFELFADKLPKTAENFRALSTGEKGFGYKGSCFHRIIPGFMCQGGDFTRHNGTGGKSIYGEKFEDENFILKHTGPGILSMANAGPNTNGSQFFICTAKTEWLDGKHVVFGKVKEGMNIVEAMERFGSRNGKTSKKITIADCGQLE
Chain of cyclophilin A (P62937 whole entry): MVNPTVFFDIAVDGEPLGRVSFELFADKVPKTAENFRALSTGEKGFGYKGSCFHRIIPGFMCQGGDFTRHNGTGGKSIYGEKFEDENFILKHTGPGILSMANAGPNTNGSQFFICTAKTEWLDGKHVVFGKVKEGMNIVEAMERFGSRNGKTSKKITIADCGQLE
Chain of CypA^V6T (P62937 whole entry V6T): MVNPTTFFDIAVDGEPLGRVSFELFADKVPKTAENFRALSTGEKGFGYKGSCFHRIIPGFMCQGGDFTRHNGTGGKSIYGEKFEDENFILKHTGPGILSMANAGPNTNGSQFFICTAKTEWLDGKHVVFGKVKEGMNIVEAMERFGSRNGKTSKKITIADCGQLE
Chain of CypA^V6I (P62937 whole entry V6I): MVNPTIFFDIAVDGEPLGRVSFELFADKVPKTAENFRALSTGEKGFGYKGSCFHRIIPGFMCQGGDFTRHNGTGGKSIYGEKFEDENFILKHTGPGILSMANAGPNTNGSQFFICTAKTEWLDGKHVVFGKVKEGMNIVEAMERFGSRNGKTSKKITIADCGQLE
Chain of CypA^V29L (P62937 whole entry V29L): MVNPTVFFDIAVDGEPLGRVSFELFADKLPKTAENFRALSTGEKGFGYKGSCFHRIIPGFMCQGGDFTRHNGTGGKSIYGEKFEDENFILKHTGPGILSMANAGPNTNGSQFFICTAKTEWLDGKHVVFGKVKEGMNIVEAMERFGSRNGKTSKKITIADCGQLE

GSFGPDLRAGD [FGP peptide]
Kd [1]: 48 µM | Kd [2]: 76 µM | Kd [3]: 82 µM | Kd [4]: 86 µM | Kd [5]: 73 µM | Kd [6]: 38 µM | Kd [7]: 37 µM | Kd [8]: 69 µM | Kd [9]: 57 µM | Kd [10]: 65 µM
